Measurements: US20230031853A1

Key:
splitGFP(1-10) [1] = experiment: cell-based or functional assay
splitGFP(1-10) [2] = experiment: in vitro splitGFP complementation, fluorescence; reference pAbBD-S11

Row | Substance | fold-increase in median splitGFP fluorescence, flow cytometry 6 hours after electroporation into HEK293T splitGFP(1-10) cells (splitGFP(1-10) [1]) | fluorescence relative to pAbBD-S11 (splitGFP(1-10) [2])
1 | Ritux-(pAbBD-S11)2 (antibody) | 39.4 fold | 2 fold
2 | pAbBD-S11 | 33.5 fold | 
